Target: SARS-CoV-2 main protease (M^pro), wild type (SARS-CoV-2)
Test: crystal structure

SARS-CoV-2 main protease (M^pro), wild type (enzyme)
stoichiometry N: 2
